B1: NS2A1: anti-tau clone, SEQ ID NO: 220 (protein)
scFv: QVQLQESGPSLVKPSQTLSLTCTVSGFSLSTNSVGWVRQAPGKAPEWVAGIDTDGEEGFNPVLKSRLSITRDTSKSQVSLSLSNVTSEDTAVYYCGRSYRTDGLAYGYVQAIDYWGPGLLVTISSEGKSSGASGESKVDDQSVLTQPSSVSGSPGQTVSITCSGSYIGSSGVGWFQQLPGSGLRTIIVASDGRPSGVPDGFSMSKSGNTATLTISSLQAEDEADYFCGSSDRTQYTGLFGSGTRLTVLG
modifications: NS2A1 amino acid sequence
B2: CA12: anti-tau clone, SEQ ID NO: 372 (protein)
scFv: QVQLQGSGPSLVKPSQTLSLTCTVSGFSFDSYYVGWVRQAPGKALEWLGNIYSTGRAFYNPALKSRLSITRDTSKSQVSLSVSSVTIEDTALYYCVRGSYYHGGGNGMVDFFDYWSPGLLVTVSSEGKSSGASGESKVDDQVVRTQPSSVSGSLGQRVSITCSGSSSNVGYGNYVGWFQQVPGSAPKLLIYAATSRASGVPDRFSGSRSGNTATLTIDSLQAEDEADYYCSSYQRGNTGVFGSGTRLTVLG
modifications: CA12 amino acid sequence
B3: CC7: anti-tau clone, SEQ ID NO: 365 (protein)
scFv: QVQLQESGPSLVKPSQTLSLTCTVSGFSLTSNAVIWVRQAPGKAPEWVALIDVDGDAAYDPALKSRLSITRDTSKSQVSLSLRSVTTEDTAVYYCARDYGSWGYVSDIDYWGPGLLVTVSSEGKSSGASGESKVDDRVVRTQPSSVSGSLGQRVSITCSGSYITGSSVGWFQQVPGSGLKTVIYDNNDRPSGVPDRFSGSKSGDTATLTISSLQAEDEADYYCASYDTSNIGLFGSGTRLTVLG
modifications: CC7 amino acid sequence
B4: S1D12 mAb: S1D12 reformatted as mAb; heavy chain SEQ ID NO: 445, light chain SEQ ID NO: 446 (antibody)
heavy: QVQLQESGPSLVKPSQTLSLTCTVSGFSLNNNAVGWVRQAPGKVPESLVGCSSDGTCYYNSALKSRLDITRDTSKNQISLSLSSVTTDDAAVYYCTRGHYSIYGYDYLGTIDYWGPGLLVTVSSAKTTAPSVYPLAPVCGDTTGSSVTLGCLVKGYFPEPVTLTWNSGSLSSGVHTFPAVLQSDLYTLSSSVTVTSSTWPSQSITCNVAHPASSTKVDKKIEPRGPTIKPCPPCKCPAPNLLGGPSVFIFPPKIKDVLMISLSPIVTCVVVDVSEDDPDVQISWFVNNVEVHTAQTQTHREDYNSTLRVVSALPIQHQDWMSGKEFKCKVNNKDLPAPIERTISKPKGSVRAPQVYVLPPPEEEMTKKQVTLTCMVTDFMPEDIYVEWTNNGKTELNYKNTEPVLDSDGSYFMYSKLRVEKKNWVERNSYSCSVVHEGLHNHHTTKSFSRTPGK
light: QAVLTQPSSVSGSLGQRVSITCSGSSSNVGGGNSVGWYQHLPGSGLKTIIYDTNSRPSGVPDRFSGSRSGNTATLTINSLQAEDEGDYYCVTGDSTTHDDLVGSGTRLTVLGGQPKSSPSVTLFPPSSEELETNKATLVCTITDFYPGVVTVDWKVDGTPVTQGMETTQPSKQSNNKYMASSYLTLTARAWERHSSYSCQVTHEGHTVEKSLSRADCS
modifications: S1D12 mAB Heavy Chain; S1D12 mAB Light Chain
B5: S1E12: anti-tau clone, SEQ ID NO: 218 (protein)
scFv: QVQLQESGPSLVKPSQTLSLTCTVSGFSLGSNSVGWVRQAPGKAPEWVAGIDTDGEEGYNPALNSRLSITRDTSKSQVSLSLSSVTSEDTAVYYCGRSYRADGLAYGYVQAIDYWGPGLLVTVSSEGKSSGASGESKVDDRVVRTQPSSVSGSLGQRVSITCSGSFIGISSVGWFQQLPGSGLRTIIVASDGRPSGVPDRFSMSKSGNTATLTISSLQAEDEADYFCGSSDRTQYTGVFGSGTRLTVLG
modifications: S1E12 amino acid sequence
B6: CA9: anti-tau clone, SEQ ID NO: 371 (protein)
scFv: QVQLQESGPSLVKPSQTLSLTCTVSGFSLTSNSVGWVRQAPGKAPEWVAGIDTDGEEGYNPALNSRLSITRDTSKSQVSLSLSSVTSEDTAVYYCGRSYRSDGLAYGYVQAIDYWGPGLLVTVSSEGKSSGASGESKVDDQAVLTQPASVSGSLGQRVSITCSGSFIGISSVGWFQQLPGSGLRTIIVASDGRPSGVPDRFSMSKSGNTATLTISSLQAEDEADYFCGSSDRTQYTGVFGSGTRLTVLG
modifications: CA9 amino acid sequence

What was measured:
dGA = dGA (Homo sapiens, UniProt P10636); test: Biacore X100 SPR binding kinetics of anti-tau scAbs (scAb captured via HuCk), analyte dGA; settings: lead scAbs; for ka: Table 24; for dissociation rate constant (kd): Table 24, dissociation rate
Protocol: Surface plasmon resonance (SPR) is widely regarded as the gold standard for real time measurement of protein-protein interactions such as antibody binding. All SPR experiments were carried out using a Biacore X100 machine and HBS EP+ running buffer (GE Healthcare). A ‘capture’ method was followed for affinity measurements, where an anti-human constant kappa chain (HuCk) antibody was conjugated to the surface of a CM5 sensor chip using an amine coupling kit and scAb molecules were immobilised via their HuCk domain. Amine coupling is a very common approach for immobilising the ligand to the chip surface. The chip surface has a dextran matrix derivatised with carboxyl groups, which after activation with N-hydroxysuccinimide (NHS) and 1-ethyl-3-(3-dimethylaminopropyl) carbodiimide (EDC), form reactive succinimide esters which allows the covalent capturing of the ligand via any available primary amine groups (e.g. Lysine) on the ligand (in this case anti-HuCk antibody). The capture antibody was diluted 1/100 in 10 mM Sodium acetate buffer pH 5.0 and passed over the activated chip surface for a period of at least 420 s. Final ligand immobilisation levels over 12,000 RU were deemed to be satisfactory.
Following immobilisation, the level of each scAb to be captured was identified using the standard SPR equation with a theoretical RMax of 100 RU. Analyte MW refers to the molecular weight of hT40 or dGA/dGAE molecules, while ligand MW refers to the molecular weight of the scAbs tested. RLis the desired capture level and S refers to the stoichiometric ratio:
The scAb to be tested was added only to flow cell 2 so that flow cell 1 could act as a control to subtract any interaction with the analyte and the chip surface. Both single and multi-cycle runs were utilised using wizards developed in the Biacore X100 control software which are both accepted methods of kinetic analysis (Karlsson, R., et al. Analyzing a kinetic titration series using affinity biosensors (2006) Analytical Biochemistry 349:136-47). The multi-cycle protocol was as follows-Three start-up cycles composed of an initial capture, to the desired level, of the scAb to be tested was performed followed by a 30 s injection of glycine buffer pH 2.0 after each cycle to regenerate the chip surface. The regeneration step removed any captured scAb whilst leaving the capture antibody intact and able to repeat the capture for the next cycle. Following three start-up cycles increasing concentrations (0.15625 nM-100 nM) of the target to be tested were added to the chip surface after the desired scAb capture. The target was added for a 120 s association period and 420 s dissociation period followed by another regeneration, 30 s injection of glycine buffer pH 2.0 in between each cycle.
The single cycle kinetics protocol was similar and utilised the same level of scAb capture. Three start-up cycles were used followed by 5 increasing concentrations of the analyte (6.25 nM-100 nM) for an association period of 120 s followed by a dissociation period of 420 s for each concentration. In single cycle kinetics the regeneration step was performed only after the final analyte concentration was added. Binding responses were analysed in Biacore X100 evaluation software and data fitted to a 1:1 binding model to obtain kinetic and affinity characterisation.

dGAE aggregates = molecular target: T1, dGAE aggregates (Homo sapiens, UniProt P10636); test: Sandwich ELISA LoD for SDS Triton X-100 treated dGAE aggregates; assay type: binding; settings: label = detection scAb
T1 construct: host or cells: aggregated in house: 100 μM dGAE with DTT, 700 rpm, 37 °C, 24 h
Protocol: For aggregation, 1000 μL 100 μM dGAE+10 μL 10 mM DTT was added to a ‘LoBind’ microfuge tubes and agitated at 700 RPM/37° C. for 24 hours. Resulting sample centrifuged at 17,000×g/4° C. for 60 min and supernatant discarded to remove left over monomer. Pellet resuspended in half the original volume for future experiments and hereafter referred to as ‘aggregates’. 1 μl of aggregates was added to 1 ml of PBS and SDS was added to a final concentration of 1% (w/v). This was left to incubate on lab bench for 1 h with gentle agitation every 15 minutes. In order to neutralise the SDS effect on ELISA, Triton X-100 added to a final concentration of 3% (v/v) and mixed gently by pipetting to prevent any bubble formation. 200 μl added of this mix was to the first well of an ELISA plate coated with 1 μg/ml S1D12 mAb and blocked with 2% MPBS. Similarly aggregates treated with only SDS or Triton X-100, untreated aggregates, dGAE monomers treated with only SDS or SDS+Titon X-100 were also added to designated wells as controls. All samples were then double diluted across the plate in final volumes of 100 μl. The final column was left with no protein to act as a blank. This was allowed to stand at room temperature for 1 hour followed by the addition of detection scAb-S1G2 at 10 μg/ml. Anti-HuCk HRP labelled secondary antibody was added as described previously and ELISA data generated was represented using the graph below. In addition, limits of detection (LoD) of various core binding antibody pairing for SDS Triton X-100 treated dGAE aggregates were calculated using the above describe ELISA method and substituting capture mAbs and detection scAbs as shown in Table 30.

tau = test: Western blot of mouse brain homogenates (WT, L66+/+, L1+/+); settings: 20 μg brain homogenate protein, 5-month-old WT, L1+/+ mice
Protocol: Protein equivalent to 20 μg from each brain extract was separated using 4-20% bis-tris gels and run in 1×MES buffer. […] A clear band is visible in the lanes containing L66^+/+ samples, but no other bands are detectable (WT or L1^+/+). […] Once again, a band having relative mobility of 65 kDa is visible in the L66 sample with no other reactive bands present.
This band most likely corresponds to endogenous mouse tau which is of a similar size. In the L66^+/+ samples, a second band running at approximately 68 kDa is also detected. The presence of numerous other bands indicates proteolytic truncation of tau within brain homogenates.

core region tau = test: S1D12 immunotherapy 6-week repeat-dose mouse study, plasma tau by CA4-S1G2 core-core Simoa assay; assay type: in vivo; settings: 30 mg/kg i.p. once per week for six weeks, CA4-S1G2 Simoa
Protocol: A total of 12 wildtype, 12 Line 1 and 12 Line 66 female mice were used in this study—Line 1 and Line 66 are transgenic mouse models of tauopathy (Melis et al., 2015). Animals were 2 months old at the beginning of the study. Mice of each genotype were injected intraperitoneally (i.p.) with either vehicle or S1D12 mAb (30 mg/kg), once per week, for six consecutive weeks.
Seven days post final dose, cardiac puncture blood sampling was performed. mice were anaesthetised using an overdose of sodium pentobarbital (i.p.) and blood was collected via cardiac puncture through a Plastipak syringe pre-rinsed with heparinised saline (10 U/mL) and transferred into a plastic vial containing lithium heparin anticoagulant. Blood samples were centrifuged to obtain plasma at 2,000×g for 5 min at 6° C.
In order to monitor the ‘treatment effect’ of S1D12 mAb, plasma tau of vehicle control and antibody treated L66^+/+ mice were assessed via a core-core homebrew Simoa® assay to investigate changes in core tau pools in these mice.

Chain of dGA (P10636 614-707): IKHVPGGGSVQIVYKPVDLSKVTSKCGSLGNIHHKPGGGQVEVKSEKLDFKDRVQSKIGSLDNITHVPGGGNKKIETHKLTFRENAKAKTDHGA
T1 sequence (P10636 614-708): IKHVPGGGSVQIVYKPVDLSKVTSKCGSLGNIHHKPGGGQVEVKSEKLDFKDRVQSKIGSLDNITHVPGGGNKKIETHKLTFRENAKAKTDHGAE

Molecule	ka (dGA) [M⁻¹ s⁻¹]	dissociation rate constant (kd) (dGA) [s⁻¹]	LoD, S1D12 mAb capture, +SDS Triton dGAE agg. (dGAE aggregates) [ng/mL]	LoD, direct immobilisation of dGAE aggregates, +SDS Triton dGAE agg. (dGAE aggregates) [ng/mL]	also measured
B1	188000	0.00102			
B2			2	16	
B3					Western blot reactivity (tau): specificity for human tau
B4					plasma tau, wildtype mice with treatment (core region tau): 3.57 (0.22) ng/ml; plasma tau, L1 mice with S1D12 treatment (core region tau; above upper limit of detection): > 100 ng/mL
B5	2.99e+06	0.001627			
B6			4	40	
